The text below walks through data of the RNAGym collection of RNA variant scans (doi:10.1021/acssynbio.7b00057).

The chains are these.
B1: Pistol ribozyme (parent)
chain: GGGUCGUUGUUCCAUAAUCGCGUGGAUAUGGCACGCAAGUUUCUACCGGGCACCGUAAAUGUCCGACUGGAGCCGUUCGGGCGGCUAUAAACAGACCUCAGGCCCGAAGCGUGGCGGCACCUGCCGCCGGUGGUAAAAAAGAUCGGAAGAGCACACGUCU

This data set covers variants of B1. The data set is described as follows: aptazyme ON/OFF ratio, guanine; higher = stronger switching; co-transcriptional cleavage with and without guanine.
Take U7C U8C G9U U11G C12U C13G: the “aptazyme ON/OFF ratio” value was determined as 1.07.

In the case of U7C U8C G9U U11G C12U C13A, the “aptazyme ON/OFF ratio” value is 1.1.

As for U7C U8C G9U U11G C12U C13U, the “aptazyme ON/OFF ratio” value amounted to 1.09.

For the variant U7C U8C G9U U11A C13A, the “aptazyme ON/OFF ratio” value turned out to be 1.17.

Turning to U7C U8C G9U U11A C13G, the “aptazyme ON/OFF ratio” value came to 1.07.

With U7C U8C G9U U11A C13U, the “aptazyme ON/OFF ratio” value was 1.15.

As for U7C U8C G9U U10A U11A C12A C13A, the “aptazyme ON/OFF ratio” value was 1.12.

As for U7C U8C G9U U10A U11A C12A C13G, the “aptazyme ON/OFF ratio” value turned out to be 1.11.

As for U7C U8C G9U U10A U11A C12A C13U, the “aptazyme ON/OFF ratio” value amounted to 1.1.

With U7C U8C G9U U11C C12U C13G, the “aptazyme ON/OFF ratio” value is 1.05.

Turning to U7C U8C G9U U11C C12U C13U, the “aptazyme ON/OFF ratio” value is 1.02.

Consider U7C U8C G9U U11C C12U C13A, for which the “aptazyme ON/OFF ratio” value came to 1.03.

As to U7C U8C G9U U11C C13G, the “aptazyme ON/OFF ratio” value was determined as 1.02.

As to U7C U8C G9U U11C C13U, the “aptazyme ON/OFF ratio” value was 1.02.

Regarding U7C U8C G9U U11C C13A, the “aptazyme ON/OFF ratio” value was 1.02.

For the variant U7C U8C G9U U11G C13U, the “aptazyme ON/OFF ratio” value was 1.16.

U7C U8C G9U U11G C13G: the “aptazyme ON/OFF ratio” value was 1.05.

Take U7C U8C G9U U11G C13A: the “aptazyme ON/OFF ratio” value was determined as 1.21.

With U7C U8C U10A U11A C12G, the “aptazyme ON/OFF ratio” value came out at 1.24.

Regarding U7C U8C U10A U11A C12U, the “aptazyme ON/OFF ratio” value stood at 1.16.

Turning to U7C U8C U10A U11A C12A, the “aptazyme ON/OFF ratio” value was 1.19.

As to U7C U8C G9U U10C U11A C12G, the “aptazyme ON/OFF ratio” value turned out to be 1.34.

Turning to U7C U8C G9U U10C U11A C12U, the “aptazyme ON/OFF ratio” value is 1.26.

For U7C U8C G9U U10C U11A C12A, the “aptazyme ON/OFF ratio” value is 1.26.

In the case of U7C U8C G9U U10A U11A C12U C13U, the “aptazyme ON/OFF ratio” value was 1.18.

On to U7C U8C G9U U10A U11A C12U C13A, for which the “aptazyme ON/OFF ratio” value turned out to be 1.09.

With U7C U8C G9U U10A U11A C12U C13G, the “aptazyme ON/OFF ratio” value was determined as 1.14.

In the case of U7C U8C U10C C12A C13U, the “aptazyme ON/OFF ratio” value was determined as 1.35.

With U7C U8C U10C C12A C13G, the “aptazyme ON/OFF ratio” value came to 1.14.

In the case of U7C U8C U10C C12A C13A, the “aptazyme ON/OFF ratio” value worked out at 1.6.

On to U7C U8C G9U U11G, for which the “aptazyme ON/OFF ratio” value was 1.16.

With U7C U8C G9U U11A, the “aptazyme ON/OFF ratio” value is 1.64.

As to U7C U8C G9U U11C, the “aptazyme ON/OFF ratio” value was 1.1.

Regarding U7C U8C G9U C13U, the “aptazyme ON/OFF ratio” value turned out to be 1.23.

In the case of U7C U8C U10A U11G C12U C13G, the “aptazyme ON/OFF ratio” value is 1.15.

Take U7C U8C U10A U11G C12U C13U: the “aptazyme ON/OFF ratio” value came out at 1.15.

In the case of U7C U8C U10A U11G C12U C13A, the “aptazyme ON/OFF ratio” value is 1.11.

Turning to U7C U8C G9U U10C U11A C12G C13U, the “aptazyme ON/OFF ratio” value is 1.09.

Regarding U7C U8C G9U U10C U11A C12G C13G, the “aptazyme ON/OFF ratio” value was 1.15.

As to U7C U8C G9U U10C U11A C12G C13A, the “aptazyme ON/OFF ratio” value worked out at 1.13.

In the case of U7C U8C U10C C12G, the “aptazyme ON/OFF ratio” value turned out to be 1.16.

For the variant U7C U8C U10C C12U, the “aptazyme ON/OFF ratio” value was 1.36.

Consider U7C U8C U10C C12A, for which the “aptazyme ON/OFF ratio” value turned out to be 1.39.

With U7C U8C G9U U10G U11G C12U, the “aptazyme ON/OFF ratio” value is 1.1.

As to U7C U8C G9U U10G U11G C12A, the “aptazyme ON/OFF ratio” value stood at 1.13.

On to U7C U8C G9U U10G U11G C12G, for which the “aptazyme ON/OFF ratio” value is 1.1.

U7C U8C G9U U10A C12U C13G: the “aptazyme ON/OFF ratio” value stood at 1.14.

Take U7C U8C G9U U10A C12U C13A: the “aptazyme ON/OFF ratio” value amounted to 1.07.

Turning to U7C U8C G9U U10A C12U C13U, the “aptazyme ON/OFF ratio” value was 1.19.

For the variant U7C U8C U10A U11C C12U C13G, the “aptazyme ON/OFF ratio” value was determined as 1.1.

U7C U8C U10A U11C C12U C13U: the “aptazyme ON/OFF ratio” value was 1.07.

Regarding U7C U8C U10A U11C C12U C13A, the “aptazyme ON/OFF ratio” value was 1.08.

Consider U7C U8C G9U U10C U11G C12U C13U, for which the “aptazyme ON/OFF ratio” value came out at 1.21.

Turning to U7C U8C G9U U10C U11G C12U C13G, the “aptazyme ON/OFF ratio” value came to 1.19.

As for U7C U8C G9U U10C U11G C12U C13A, the “aptazyme ON/OFF ratio” value was determined as 1.09.

On to U7C U8C G9U U11A C12A C13A, for which the “aptazyme ON/OFF ratio” value is 1.17.

For U7C U8C G9U U11A C12A C13U, the “aptazyme ON/OFF ratio” value amounted to 1.28.

Regarding U7C U8C G9U U11A C12A C13G, the “aptazyme ON/OFF ratio” value is 1.1.

Regarding U7C U8C G9U U10A U11C C12A C13U, the “aptazyme ON/OFF ratio” value was 1.18.

U7C U8C G9U U10A U11C C12A C13G: the “aptazyme ON/OFF ratio” value was found to be 1.15.

For U7C U8C G9U U10A U11C C12A C13A, the “aptazyme ON/OFF ratio” value amounted to 1.17.

For U7C U8C G9U U11A C12G C13G, the “aptazyme ON/OFF ratio” value came to 1.16.

Turning to U7C U8C G9U U11A C12G C13A, the “aptazyme ON/OFF ratio” value is 1.07.

With U7C U8C G9U U11A C12G C13U, the “aptazyme ON/OFF ratio” value turned out to be 1.13.

U7C U8C G9U U10G U11G C12A C13U: the “aptazyme ON/OFF ratio” value came to 1.1.

U7C U8C G9U U10G U11G C12A C13A: the “aptazyme ON/OFF ratio” value amounted to 1.01.

U7C U8C G9U U10G U11G C12A C13G: the “aptazyme ON/OFF ratio” value stood at 1.09.

U7C U8C U10A U11C C12U: the “aptazyme ON/OFF ratio” value was 1.05.

Take U7C U8C U10A U11C C12G: the “aptazyme ON/OFF ratio” value is 1.26.

For U7C U8C U10A U11C C12A, the “aptazyme ON/OFF ratio” value is 1.29.

Take U7C U8C U10A U11C C12G C13U: the “aptazyme ON/OFF ratio” value stood at 1.29.

For the variant U7C U8C U10A U11C C12G C13G, the “aptazyme ON/OFF ratio” value was determined as 1.22.

Take U7C U8C U10A U11C C12G C13A: the “aptazyme ON/OFF ratio” value was found to be 1.22.

As to U7C U8C G9U U10C U11C C12G C13G, the “aptazyme ON/OFF ratio” value was 1.18.

On to U7C U8C G9U U10C U11C C12G C13U, for which the “aptazyme ON/OFF ratio” value came out at 1.05.

As for U7C U8C G9U U10C U11C C12G C13A, the “aptazyme ON/OFF ratio” value was found to be 1.05.

For U7C U8C G9U U10G U11G C12G C13A, the “aptazyme ON/OFF ratio” value amounted to 1.1.

With U7C U8C G9U U10G U11G C12G C13G, the “aptazyme ON/OFF ratio” value worked out at 1.06.

Turning to U7C U8C G9U U10G U11G C12G C13U, the “aptazyme ON/OFF ratio” value was found to be 1.06.

For the variant U7C U8C U10A U11A C13A, the “aptazyme ON/OFF ratio” value amounted to 1.26.

For the variant U7C U8C U10A U11A C13U, the “aptazyme ON/OFF ratio” value is 1.29.

As for U7C U8C U10A U11A C13G, the “aptazyme ON/OFF ratio” value worked out at 1.14.

In the case of U7C U8C G9U U10A U11A, the “aptazyme ON/OFF ratio” value worked out at 2.27.
